Measurements as given in patent US20020123091A1.

Assays:
[1] = target: human kallikrein (Haematologic Technologies) (human) (UniProt P03952); experiment: cell-based or functional assay
[2] = target: human kallikrein (Haematologic Technologies) (human) (UniProt P03952); experiment: apparent Ki (K1*) calculated from the IC50 as K1*=IC50/(1+(S/KM)), assuming competitive inhibition; chromogenic substrate S2305 1.8 mM, kallikrein 1.25 nM

human kallikrein (Haematologic Technologies) (human), sequence (P03952 20-638 limits assumed): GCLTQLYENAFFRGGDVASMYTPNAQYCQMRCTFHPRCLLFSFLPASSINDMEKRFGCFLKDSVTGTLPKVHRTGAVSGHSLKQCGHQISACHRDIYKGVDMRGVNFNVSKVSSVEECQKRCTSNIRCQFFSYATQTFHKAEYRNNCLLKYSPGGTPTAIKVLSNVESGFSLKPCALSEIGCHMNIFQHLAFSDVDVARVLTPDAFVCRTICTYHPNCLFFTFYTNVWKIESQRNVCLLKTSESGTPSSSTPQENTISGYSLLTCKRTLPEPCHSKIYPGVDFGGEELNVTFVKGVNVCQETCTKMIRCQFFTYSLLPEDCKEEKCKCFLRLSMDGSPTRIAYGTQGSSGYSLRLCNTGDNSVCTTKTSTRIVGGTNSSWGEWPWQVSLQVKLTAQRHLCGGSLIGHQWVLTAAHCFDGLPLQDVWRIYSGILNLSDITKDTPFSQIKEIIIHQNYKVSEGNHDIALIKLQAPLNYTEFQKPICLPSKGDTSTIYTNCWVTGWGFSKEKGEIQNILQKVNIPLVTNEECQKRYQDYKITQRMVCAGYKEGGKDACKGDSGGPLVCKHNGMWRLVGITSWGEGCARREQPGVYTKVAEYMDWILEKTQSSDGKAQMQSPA

inhibition of kallikrein enzymatic activity toward chromogenic substrate S2305 (IC50) [1]: 104 nM | Ki [2]: 37 nM
Substance: PRO256 polypeptide (from UniProt O43278 36-465)
